Starred links: 1 amine or outer side, 2 acyl side, 3 side chain; linkers in the order of their positions; H or OH if unused. Positions of bridges follow the written chain, without caps; N, C: chain ends. Non-standard residues stand in square brackets, D forms with d. Primed or numbered codes have the meaning given here. No end group written: not given here. Dab(acetyl)″ = 2-amino-4-(acetylamino)butanoic acid, acetyl CH3 carbon bonded to the S of Hcy (S-CH2-C(=O)-NH-), O=C(C[*:3])NCC[C@H](N[*:1])C(=O)[*:2]; Dab(acetyl) = 2-amino-4-acetylamino-butanoic acid residue (N-γ-acetyl-diaminobutyric acid), CC(=O)NCC[C@H](N[*:1])C(=O)[*:2]; Dap(acetyl) = 2-amino-3-acetylamino-propanoic acid residue, CC(=O)NC[C@H](N[*:1])C(=O)[*:2]; COCH2 = acetyl group that carries the bridge; hCys = N[C@@H](CCS)C(=O)O; Dab = NCC[C@H](N)C(=O)O; Dap = NC[C@H](N)C(=O)O; βAla = NCCC(=O)O
B1: Cyclic peptide 50 (peptide)
peptide: KKKA[hCys]EPRGDNYR[Dab(acetyl)″]-NH2
modifications: thioether 5-14; N-terminus assumed
SMILES: C[C@H](NC(=O)[C@H](CCCCN)NC(=O)[C@H](CCCCN)NC(=O)[C@@H](N)CCCCN)C(=O)N[C@H]1CCSCC(=O)NCC[C@@H](C(N)=O)NC(=O)[C@H](CCCNC(=N)N)NC(=O)[C@H](Cc2ccc(O)cc2)NC(=O)[C@H](CC(N)=O)NC(=O)[C@H](CC(=O)O)NC(=O)CNC(=O)[C@H](CCCNC(=N)N)NC(=O)[C@@H]2CCCN2C(=O)[C@H](CCC(=O)O)NC1=O
B2: Cyclic peptide 162 (peptide)
peptide: KKKA[hCys]IPRGDSFA[Dab](COCH2)
modifications: thioether 5-14
B3: Cyclic peptide 166 (peptide)
peptide: KKKA[Dap](COCH2)EPRGDNYRC
modifications: thioether 5-14
B4: Cyclic peptide 142 (peptide)
peptide: KKKA[Dab(acetyl)]VPRGDTFACA
modifications: thioether 5-14
B5: Cyclic peptide 46 (peptide)
peptide: KKK[Dap(acetyl)]EPRGDNYR[hCys]
modifications: thioether 4-13
B6: Cyclic peptide 143 (peptide)
peptide: KKK[Dab(acetyl)]VPRGDNFC
modifications: thioether 4-12
B7: Cyclic peptide 8 (peptide)
peptide: KKKGXPRGDNFRXA
modifications: not fully specified; KKKG-(Hcy)-PRGDNFR(Dab(acetyl))A; thioether bond Hcy-Dab(acetyl)
B8: Cyclic peptide 47 (peptide)
peptide: KKKA[Dap(acetyl)]EPRGDNYR[hCys]
modifications: thioether 5-14
B9: Cyclic peptide 159 (peptide)
peptide: KKK[hCys]TPRGDTFA[Dab](COCH2)A
modifications: thioether 4-13
B10: Cyclic peptide 165 (peptide)
peptide: KKK[hCys]VPRGDTFA[Dab](COCH2)A
modifications: thioether 4-13
B11: Cyclic peptide 141 (peptide)
peptide: KKK[Dab(acetyl)]VPRGDTFAC
modifications: thioether 4-13
B12: Cyclic peptide 163 (peptide)
peptide: KKK[hCys]IPRGDSFA[Dab](COCH2)A
modifications: thioether 4-13
B13: Cyclic peptide 6 (peptide)
peptide: KKKG[hCys]IPRGDNF[Dab(acetyl)″]A
modifications: thioether 5-13
B14: Cyclic peptide 160 (peptide)
peptide: KKKA[hCys]TPRGDTFA[Dab](COCH2)A
modifications: thioether 5-14
B15: Cyclic peptide 52 (peptide)
peptide: KKK[Dap(acetyl)]EPRGDNYR[hCys]-NH2
modifications: thioether 4-13
B16: Cyclic peptide 53 (peptide)
peptide: KKKA[Dap(acetyl)]EPRGDNYR[hCys]-NH2
modifications: thioether 5-14
B17: Cyclic peptide 144 (peptide)
peptide: KKK[hCys]DPRGDTFA[Dab(acetyl)]
modifications: thioether 4-13
B18: Cyclic peptide 148 (peptide)
peptide: KKK[hCys]YPRGDTFA[Dab(acetyl)]
modifications: thioether 4-13
B19: Cyclic peptide 153 (peptide)
peptide: KKK[hCys]VPRGDTFS[Dab(acetyl)]
modifications: thioether 4-13
B20: Cyclic peptide 157 (peptide)
peptide: KKK[hCys]TTRGDSFA[Dab(acetyl)]
modifications: thioether 4-13
B21: Cyclic peptide 145 (peptide)
peptide: KKK[hCys]EPRGDTFA[Dab(acetyl)]
modifications: thioether 4-13
B22: Cyclic peptide 151 (peptide)
peptide: KKK[hCys]VPRGDVFA[Dab(acetyl)]
modifications: thioether 4-13
B23: Cyclic peptide 147 (peptide)
peptide: KKK[hCys]TPRGDTFA[Dab(acetyl)]
modifications: thioether 4-13
B24: Cyclic peptide 149 (peptide)
peptide: KKK[hCys]VSRGDTFA[Dab(acetyl)]
modifications: thioether 4-13
B25: Cyclic peptide 146 (peptide)
peptide: KKK[hCys]LPRGDTFA[Dab(acetyl)]
modifications: thioether 4-13
B26: Cyclic peptide 152 (peptide)
peptide: KKK[hCys]VPRGDTFG[Dab(acetyl)]
modifications: thioether 4-13
B27: Cyclic peptide 150 (peptide)
peptide: KKK[hCys]VTRGDTFA[Dab(acetyl)]
modifications: thioether 4-13
B28: Cyclic peptide 155 (peptide)
peptide: KKK[hCys]TTRGDTFA[Dab(acetyl)]
modifications: thioether 4-13
B29: Cyclic peptide 158 (peptide)
peptide: KKKA[hCys]TPRGDTFA[Dab(acetyl)]
modifications: thioether 5-14
B30: Cyclic peptide 164 (peptide)
peptide: KKKA[hCys]VPRGDTFA[Dab](COCH2)
modifications: thioether 5-14
B31: Cyclic peptide 33 (peptide)
peptide: KKKA[hCys]EPRGDSYR[Dab](COCH2)D
modifications: thioether 5-14
B32: Cyclic peptide 35 (peptide)
peptide: KKKA[hCys]EPRGDNYD[Dab](COCH2)D
modifications: thioether 5-14
B33: Cyclic peptide 51 (peptide)
peptide: KKK[βAla][hCys]EPRGDNYR[Dab(acetyl)″]-NH2
modifications: thioether 5-14; N-terminus assumed
SMILES: N=C(N)NCCC[C@@H]1NC(=O)[C@H](Cc2ccc(O)cc2)NC(=O)[C@H](CC(N)=O)NC(=O)[C@H](CC(=O)O)NC(=O)CNC(=O)[C@H](CCCNC(=N)N)NC(=O)[C@@H]2CCCN2C(=O)[C@H](CCC(=O)O)NC(=O)[C@@H](NC(=O)CCNC(=O)[C@H](CCCCN)NC(=O)[C@H](CCCCN)NC(=O)[C@@H](N)CCCCN)CCSCC(=O)NCC[C@@H](C(N)=O)NC1=O
B34: Cyclic peptide 73 (peptide)
peptide: KKKGXIPRGDXFRXA
modifications: not fully specified; KKKG-(Hcy)-IPRGD-(HmS)-FR(Dab(acetyl))A; HmS = homoserine; thioether bond Hcy-Dab(acetyl)
B35: Cyclic peptide 49 (peptide)
peptide: KKK[hCys]EPRGDNYR[Dab(acetyl)″]-NH2
modifications: thioether 4-13; N-terminus assumed
SMILES: N=C(N)NCCC[C@@H]1NC(=O)[C@H](Cc2ccc(O)cc2)NC(=O)[C@H](CC(N)=O)NC(=O)[C@H](CC(=O)O)NC(=O)CNC(=O)[C@H](CCCNC(=N)N)NC(=O)[C@@H]2CCCN2C(=O)[C@H](CCC(=O)O)NC(=O)[C@@H](NC(=O)[C@H](CCCCN)NC(=O)[C@H](CCCCN)NC(=O)[C@@H](N)CCCCN)CCSCC(=O)NCC[C@@H](C(N)=O)NC1=O

Assays:
human integrin αvβ5 [1] = target: T1, human integrin αvβ5 (human, UniProt P06756 31-992; P18084 24-719, limits assumed); assay: SPR, Biacore 3000, peptide immobilised; C = KD more than 100 nM and 200 nM or less
T1 construct: Heterodimer flowed as analyte at 30, 100, 300 and 1,000 nM in HEPES buffer with 5 mM MgCl2
T1 sequence (P06756 31-992 limits assumed, chain 1 of 2): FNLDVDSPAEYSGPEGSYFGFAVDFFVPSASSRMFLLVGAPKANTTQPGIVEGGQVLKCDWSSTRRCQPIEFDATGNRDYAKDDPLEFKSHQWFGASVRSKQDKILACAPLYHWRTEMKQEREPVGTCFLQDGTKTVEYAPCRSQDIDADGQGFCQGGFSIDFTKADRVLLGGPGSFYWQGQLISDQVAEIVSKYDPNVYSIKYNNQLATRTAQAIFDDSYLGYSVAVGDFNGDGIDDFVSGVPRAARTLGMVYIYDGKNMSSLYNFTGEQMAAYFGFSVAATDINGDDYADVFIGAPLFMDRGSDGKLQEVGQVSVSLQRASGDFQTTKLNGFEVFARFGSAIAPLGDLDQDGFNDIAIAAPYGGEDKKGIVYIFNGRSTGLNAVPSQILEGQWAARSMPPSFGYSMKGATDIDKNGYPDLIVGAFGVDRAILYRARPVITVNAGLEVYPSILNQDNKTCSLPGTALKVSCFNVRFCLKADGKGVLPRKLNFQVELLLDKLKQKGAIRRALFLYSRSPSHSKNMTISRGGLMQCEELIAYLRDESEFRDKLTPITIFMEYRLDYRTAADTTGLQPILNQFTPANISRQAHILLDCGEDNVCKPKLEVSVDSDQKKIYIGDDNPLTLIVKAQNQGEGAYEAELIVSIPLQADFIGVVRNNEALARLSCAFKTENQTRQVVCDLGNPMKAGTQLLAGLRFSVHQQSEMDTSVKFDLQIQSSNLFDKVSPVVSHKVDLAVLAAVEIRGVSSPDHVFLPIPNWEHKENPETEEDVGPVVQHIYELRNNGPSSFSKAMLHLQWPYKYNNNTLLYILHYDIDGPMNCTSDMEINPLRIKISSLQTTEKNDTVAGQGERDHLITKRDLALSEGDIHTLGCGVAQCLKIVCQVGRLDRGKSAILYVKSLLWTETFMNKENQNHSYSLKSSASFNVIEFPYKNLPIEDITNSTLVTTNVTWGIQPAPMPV
T1 sequence (P18084 24-719 limits assumed, chain 2 of 2): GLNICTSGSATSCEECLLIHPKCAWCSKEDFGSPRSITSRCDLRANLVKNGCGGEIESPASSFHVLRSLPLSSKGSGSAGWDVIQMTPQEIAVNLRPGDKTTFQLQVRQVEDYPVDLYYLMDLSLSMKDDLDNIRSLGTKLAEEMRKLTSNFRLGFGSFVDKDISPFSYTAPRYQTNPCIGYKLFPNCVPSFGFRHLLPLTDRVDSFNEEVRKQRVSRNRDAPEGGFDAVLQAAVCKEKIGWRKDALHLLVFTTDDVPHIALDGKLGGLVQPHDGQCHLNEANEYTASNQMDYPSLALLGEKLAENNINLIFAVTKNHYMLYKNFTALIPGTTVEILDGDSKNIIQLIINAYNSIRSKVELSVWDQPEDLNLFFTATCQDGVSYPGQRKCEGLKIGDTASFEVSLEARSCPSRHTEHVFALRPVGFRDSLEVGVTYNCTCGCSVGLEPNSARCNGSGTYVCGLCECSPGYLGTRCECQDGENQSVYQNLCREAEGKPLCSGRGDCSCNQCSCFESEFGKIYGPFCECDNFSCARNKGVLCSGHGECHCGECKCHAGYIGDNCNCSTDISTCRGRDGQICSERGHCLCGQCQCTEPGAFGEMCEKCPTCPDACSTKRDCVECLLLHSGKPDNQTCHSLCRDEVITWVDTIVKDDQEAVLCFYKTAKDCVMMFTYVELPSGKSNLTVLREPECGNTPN
Procedure: (§1) However, only for the cyclic peptides 125, 126, and 127, in which the number of lysine residues having an amino group as the immobilizing functional group was zero, the amount of the sample solution to be supplied to the sensor chip was set to 500 μL instead of 20 μL. Further, 70 μL of the mixed aqueous solution of 0.2 M EDC and 0.04 M NHS was added to another flow channel of the same sensor chip without immobilizing the sample, and then blocking treatment and washing treatment were carried out. Hereinafter, the obtained immobilization-treated sensor chip is referred to as an “immobilization-treated sensor chip A”.
(§2) After adding human integrin αvβ5 for 10 minutes at 25° C., which was diluted to 30 nM using a HEPES buffer solution to which magnesium chloride was added to 5 mM, in each flow channel of the immobilization-treated sensor chip A prepared in (1) above, the same HEPES buffer solution (containing 5 mM magnesium chloride) was allowed to flow as a running buffer for 30 minutes, and measurement was carried out with Biacore 3000. Then, a regeneration treatment of removing human integrin αvβ5 was carried out by allowing a 0.5 M EDTA aqueous solution to flow through each flow channel for 10 minutes. Further, the above-described measurement process consisting of adding integrin for 10 minutes, allowing a running buffer to flow for 30 minutes, carrying out measurement with Biacore 3000, and carrying out regeneration treatment with 0.5 M EDTA aqueous solution was carried out in the same manner for 100 nM human integrin αvβ5, 300 nM human integrin αvβ5, and 1,000 nM human integrin αvβ5. Dissociation constant between the cyclic peptide and human integrin αvβ5 was calculated from the difference between the value measured by Biacore 3000 in the flow channel immobilized with the cyclic peptide and the value measured by Biacore 3000 in the flow channel unimmobilized with the cyclic peptide, in a case where each concentration of human integrin αvβ5 was allowed to flow, and the integrin binding property was evaluated according to the following evaluation standards. It is preferable that the evaluation result satisfies the evaluation standard A, B, or C.

human integrin αvβ5 [2] = target: T1, human integrin αvβ5; assay: SPR, Biacore 3000, peptide immobilised; A = KD 50 nM or less
human integrin αvβ5 [3] = target: T1, human integrin αvβ5; assay: SPR, Biacore 3000, peptide immobilised; B = KD more than 50 nM and 100 nM or less
Procedure: as §1, §2

Binder	dissociation constant (KD) (human integrin αvβ5 [2])	also measured
B1		dissociation constant (KD) (human integrin αvβ5 [1]): 100 to 200 nM
B2	≤ 50 nM	
B3	≤ 50 nM	
B4	≤ 50 nM	
B5		dissociation constant (KD) (human integrin αvβ5 [3]): 50 to 100 nM
B6	≤ 50 nM	
B7		dissociation constant (KD) (human integrin αvβ5 [3]): 50 to 100 nM
B8		dissociation constant (KD) (human integrin αvβ5 [3]): 50 to 100 nM
B9	≤ 50 nM	
B10	≤ 50 nM	
B11	≤ 50 nM	
B12	≤ 50 nM	
B13		dissociation constant (KD) (human integrin αvβ5 [3]): 50 to 100 nM
B14	≤ 50 nM	
B15		dissociation constant (KD) (human integrin αvβ5 [3]): 50 to 100 nM
B16		dissociation constant (KD) (human integrin αvβ5 [3]): 50 to 100 nM
B17	≤ 50 nM	
B18	≤ 50 nM	

Binder	dissociation constant (KD) (human integrin αvβ5 [2])	also measured
B19	≤ 50 nM	
B20	≤ 50 nM	
B21	≤ 50 nM	
B22	≤ 50 nM	
B23	≤ 50 nM	
B24	≤ 50 nM	
B25	≤ 50 nM	
B26	≤ 50 nM	
B27	≤ 50 nM	
B28	≤ 50 nM	
B29	≤ 50 nM	
B30	≤ 50 nM	
B31		dissociation constant (KD) (human integrin αvβ5 [1]): 100 to 200 nM
B32		dissociation constant (KD) (human integrin αvβ5 [1]): 100 to 200 nM
B33		dissociation constant (KD) (human integrin αvβ5 [1]): 100 to 200 nM
B34		dissociation constant (human integrin αvβ5 [3]): 50 to 100 nM
B35		dissociation constant (KD) (human integrin αvβ5 [3]): 50 to 100 nM

Source: US20220089647A1 (FUJIFILM, published 2022)
